Laboratory results taken from patent publication US20070065890.

B1: recombinant SirT3 (protein)
chain: MAFWGWRAAAALRLWGRVVERVEAGGGVGPFQACGCRLVLGGRDDVSAGLRGSHGARGEPLDPARPLQRPPRPEVPRAFRRQPRAAAPSFFFSSIKGGRRSISFSVGASSVVGSGGSSDKGKLSLQDVAELIRARACQRVVVMVGAGISTPSGIPDFRSPGSGLYSNLQQYDLPYPEAIFELPFFFHNPKPFFTLAKELYPGNYKPNVTHYFLRLLHDKGLLLRLYTQNIDGLERVSGIPASKLVEAHGTFASATCTVCQRPFPGEDIRADVMADRVPRCPVCTGVVKPDIVFFGEPLPQRFLLHVVDFPMADLLLILGTSLEVEPFASLTEAVRSSVPRLLINRDLVGPLAWHPRSRDVAQLGDVVHGVESLVELLGWTEEMRDLVQRETGKLDGPDK
B2: baculovirus-expressed recombinant FLAG-SirT1 protein (protein)
chain: MADEAALALQPGGSPSAAGADREAASSPAGEPLRKRPRRDGPGLERSPGEPGGAAPEREVPAAARGCPGAAAAALWREAEAEAAAAGGEQEAQATAAAGEGDNGPGLQGPSREPPLADNLYDEDDDDEGEEEEEAAAAAIGYRDNLLFGDEIITNGFHSCESDEEDRASHASSSDWTPRPRIGPYTFVQQHLMIGTDPRTILKDLLPETIPPPELDDMTLWQIVINILSEPPKRKKRKDINTIEDAVKLLQECKKIIVLTGAGVSVSCGIPDFRSRDGIYARLAVDFPDLPDPQAMFDIEYFRKDPRPFFKFAKEIYPGQFQPSLCHKFIALSDKEGKLLRNYTQNIDTLEQVAGIQRIIQCHGSFATASCLICKYKVDCEAVRGDIFNQVVPRCPRCPADEPLAIMKPEIVFFGENLPEQFHRAMKYDKDEVDLLIVIGSSLKVRPVALIPSSIPHEVPQILINREPLPHLHFDVELLGDCDVIINELCHRLGGEYAKLCCNPVKLSEITEKPPRTQKELAYLSELPPTPLHVSEDSSSPERTSPPDSSVIVTLLDQAAKSNDDLDVSESKGCMEEKPQEVQTSRNVESIAEQMENPDLKNVGSSTGEKNERTSVAGTVRKCWPNRVAKEQISRRLDGNQYLFLPPNRYIFHGAEVYSDSEDDVLSSSSCGSNSDSGTCQSPSLEEPMEDESEIEEFYNGLEDEPDVPERAGGAGFGTDGDDQEAINEAISVKQEVTDMNYPSNKS
B3: recombinant SirT2 (protein)
chain: MAEPDPSHPLETQAGKVQEAQDSDSDSEGGAAGGEADMDFLRNLFSQTLSLGSQKERLLDELTLEGVARYMQSERCRRVICLVGAGISTSAGIPDFRSPSTGLYDNLEKYHLPYPEAIFEISYFKKHPEPFFALAKELYPGQFKPTICHYFMRLLKDKGLLLRCYTQNIDTLERIAGLEQEDLVEAHGTFYTSHCVSASCRHEYPLSWMKEKIFSEVTPKCEDCQSLVKPDIVFFGESLPARFFSCMQSDFLKVDLLLVMGTSLQVQPFASLISKAPLSTPRLLINKEKAGQSDPFLGMIMGLGGGMDFDSKKAYRDVAWLGECDQGCLALAELLGWKKELEDLVRREHASIDAQSGAGVPNPSTSASPKKSPPPAKDEARTTEREKPQ

Assays:
[1] = molecular target: purified recombinant HA-H1b (expressed in E. coli), P10412
[2] = molecular target: H1 histones isolated from cells treated with TSA and nicotinamide, P10412
[3] = molecular target: histone H1 (purified calf thymus H1)

purified recombinant HA-H1b (expressed in E. coli), P10412, sequence (P10412 whole entry, looked up): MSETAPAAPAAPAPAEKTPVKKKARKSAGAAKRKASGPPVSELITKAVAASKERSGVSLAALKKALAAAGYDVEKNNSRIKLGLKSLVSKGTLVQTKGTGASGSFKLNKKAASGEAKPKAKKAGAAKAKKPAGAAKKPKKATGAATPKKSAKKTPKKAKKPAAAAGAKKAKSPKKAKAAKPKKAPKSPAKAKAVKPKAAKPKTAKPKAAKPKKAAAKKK
H1 histones isolated from cells treated with TSA and nicotinamide, P10412, sequence (P10412 whole entry, looked up): as above

Protein | release of [3H]-acetyl label from p300-acetylated recombinant H1b [1] | western blot with the acetyl H1-K26 antibody after treatment with SirT1 [2] | nicotinamide exchange reaction (NER) with H1 as acetylated substrate [3] | release of [3H]-acetyl label from p300-acetylated H1 [3]
B1 | SirT2 or SirT3 failed to significantly deacetylate H1b |  |  | 
B2 | The same result was observed using recombinant human H1b | resulted in decreased immunoreactivity | Histone H1 served as substrate in the SirT1-dependent NER assay | SirT1 -released up to 70% of the total label
B3 | SirT2 or SirT3 failed to significantly deacetylate H1b |  |  | 
